From patent US6809076B2, “Use of anticoagulant agents in the extracorporeal treatment of blood” (Abbott GmbH & Co. KG, priority 2000, dated 2004)
Marks after values point to notes of the source that are not given here. PEG = not defined here

Experiments:
plasma fibrin formation = assay: APTT determination in dialysis patients; format: in vivo, human
Method: The determination of the activated partial thromboplastin time (APTT) is based on plasma fibrin formation induced by addition of a partial thromboplastin (Actin FS) and calicum [sic] ions to the plasma. Ellagic acid is used as activator.
The sample volume is at least 450 μl.
The controls used are control plasma in the normal range, control plasma in the therapeutic range, control plasma in the low therapeutic range and a quality control in the normal range, for example the controls commercially available from Dade citrol 1, Citrol 2, Citrol 3 and Coag Trol N.
The measurement is carried out in an ACL 3000.
The ACL 3000 is a completely automatic, microcomputer-controlled centrifugal analysis system. After the start of the analysis cycle, sample and Actin are pipetted separately into the half-cuvettes of a reaction rotor made of acrylic glass with 20 cuvettes, and are mixed and then incubate d. After the incubation, calcium chloride is pipetted into the cuvettes, mixed and measured. Measurements are carried out while the rotor is rotating. The light source for the nephelometric measurement is a light-emitting diode (LED) whose light beam is directed via a light guide system (γ=660 nm) onto the measuring cuvettes. The scattered light distribution is measured at an angle of 90° to the light source with the aid of a semiconductor sensor located underneath the rotor carrier. The measured results can also be stated as ratio and describe the ratio of the current value to the individual baseline value for a patient before the dialysis with PEG-hirudin.
The accuracy of measurement is +10% to −10%.

thrombin [1] = conditions: human, in vivo, iv, 0.08 mg/kg
Method: (§1) 20 male and female patients between 18 and 75 years who must regularly undergo hemodialysis were selected. After an initial treatment with heparin (UFH), each patient was given an intravenous injection, immediately before the first dialysis during PEG-hirudin treatment, of a dose of 0.08 mg/kg of PEG-hirudin with a specific antithrombin activity of 13,354 ATU/mg of protein per kg of body weight. This was followed by hemodialysis with an average duration of 4 hours, 3×a week using a Hemophan low flux membrane in a GFS plus 16 dialyzer. When the dialysis was complete and before the subsequent dialysis sessions, firstly the PEG-hirudin concentrations in the patient's blood were determined. The measured values served as the basis for the amount of the PEG-hirudin doses to be administered immediately before each hemodialysis.
Determination of the anti-IIa activity is based on measurement of the activity remaining after addition of excess thrombin to the sample. Heparin and other non-thrombin serine proteases are neutralized before the assay by adding prothamine [sic] chloride and aprotinin to the sample. […]
The measurement is carried out in an ACL 3000 (incubation time: 120 s; inter-ramp interval: 3 s; delay time: 3 s; aquisition time: 120 s; speed: 600 rpm). The extinction is measured using a 405 nm filter at a constant rotor speed. […]

meizothrombin = molecular target: T1, meizothrombin (Homo sapiens, UniProt P00734); assay: ECT (ecarin clotting time) determination in dialysis patients; format: in vivo
T1 construct: produces meizothrombin by cleavage of the prothromin in the plasma; from tissue; host or cells: citrated venous blood/plasma of human dialysis patients
Method: Determination of the ECT (ecarin clotting time) is based on the inhibition of the coagulation activity of meizothrombin. Ecarin, a purified fraction of Echis carinatus venom, produces meizothrombin by cleavage of the prothromin in the plasma. The time until fibrinogen coagulates induced by ecarin is measured.
The sample volume is about 100 μl.
Standard E: [c]=2500 ng/ml (1:20 dilution of standard C with normal human citrated plasma)
The measured results can also be stated as ratio and describe the ratio of the current value to the individual baseline value for a patient before the dialysis with PEG-hirudin.
The accuracy of measurement is +30% to −10%.

thrombin [2] = molecular target: thrombin (Homo sapiens, UniProt P00734); assay: Specific antithrombin activity (ATU, WHO I thrombin standard); format: biochemical
Source text: The blood levels described above can usually be obtained with bolus doses in the range from about […] to about 1400 ATU/kg, preferably from about 400 ATU/kg to about 1200 ATU/kg and, in particular, from about 600 ATU/kg to about 1000 ATU/kg, of body weight. After adaptation it is possible to treat individuals with chronic renal insufficiency, with an average of three exracorporeal circulations a week, with a dosage of about 200 to about 1000 ATU/kg, preferably of about 200 ATU/kg to about 800 ATU/kg and, in particular, from about 400 ATU/kg to about 600 ATU/kg, of body weight. The abbreviation ATU stands for antithrombin units bas ed on the WHO I thrombin standard.

vascular complications = assay: Prophylaxis of vascular complications between hemodialysis sessions; format: in vivo, human; conditions: residual concentration in blood between the hemodialysis sessions, 20 patients
Method: as §1

[3] = dialysis 04, first with PEG-hirudin (0.08 mg/kg i.v.)
[4] = dialysis 05, PEG-hirudin i.v. before each dialysis
[5] = dialysis 06, PEG-hirudin i.v. before each dialysis
[6] = dialysis 07, PEG-hirudin i.v. before each dialysis
[7] = dialysis 08, PEG-hirudin i.v. before each dialysis
[8] = dialysis 09, PEG-hirudin i.v. before each dialysis
[9] = dialysis 10, PEG-hirudin i.v. before each dialysis
[10] = dialysis 11, PEG-hirudin i.v. before each dialysis
[11] = dialysis 12, PEG-hirudin i.v. before each dialysis
[12] = dialysis 13, PEG-hirudin i.v. before each dialysis

B1: PEG-hirudin: polyethylene glycol conjugates of hirudin; preferably SEQ ID NO:1 polypeptide with PEG residues on lysine 27 and lysine 33 (conjugate)
chain: VVYTDCTESGQNLCLCEGSNVCGQGNK(PEG)CILGSK(PEG)GERNQCVTGEGTPRPQSHNDGDFEEIPEEYLQ
modifications: ends and bridges not checked
Plasma fibrin formation; [3]
  APTT After dialysis: 2.2 ratio
  APTT Bolus 5' after admin.: 2.5 ratio
Plasma fibrin formation; dialysis 04, first with PEG-hirudin (0.08 mg/kg i.v.), before dose
  APTT Before dialysis: 1.0 ratio
Plasma fibrin formation; [4]
  APTT After dialysis: 2.3 ratio
  APTT Before dialysis: 1.7 ratio
Plasma fibrin formation; [5]
  APTT After dialysis: 2.3 ratio
  APTT Before dialysis: 1.9 ratio
Plasma fibrin formation; [6]
  APTT After dialysis: 2.2 ratio
  APTT Before dialysis: 1.9 ratio
Plasma fibrin formation; [7]
  APTT After dialysis: 2.5 ratio
  APTT Before dialysis: 2.0 ratio
  APTT Bolus 5' after admin.: 2.6 ratio
Plasma fibrin formation; [8]
  APTT After dialysis: 2.4 ratio
  APTT Before dialysis: 2.0 ratio
Plasma fibrin formation; [9]
  APTT After dialysis: 2.3 ratio
  APTT Before dialysis: 2.0 ratio
Plasma fibrin formation; [10]
  APTT After dialysis: 2.3 ratio
  APTT Before dialysis: 2.0 ratio
Plasma fibrin formation; [11]
  APTT After dialysis: 2.3 ratio
  APTT Before dialysis: 2.0 ratio
Plasma fibrin formation; [12]
  APTT After dialysis: 2.2 ratio
  APTT Before dialysis: 1.9 ratio
  APTT Bolus 5' after admin.: 2.5 ratio
Thrombin [1]
  Anti-IIa After dialysis: 818 ng/mL
Thrombin [1]; 5 min
  Anti-IIa Bolus 5' after admin.: 1298 ng/mL
meizothrombin; [3]
  ECT Bolus 5' after admin.: 3.0 [s] [ratio]
meizothrombin; [7]
  ECT Bolus 5' after admin.: 3.1 [s] [ratio]
meizothrombin; [12]
  ECT Bolus 5' after admin.: 3.1 [s] [ratio]
Thrombin [2]; PEG-hirudin given to the patients
  specific antithrombin activity: 13,354 ATU/mg of protein
Thrombin [2]; Standard A, 26.6 mg/ml
  specific activity: 11,696 ATU/mg of protein
Vascular complications
  prophylactic protection against vascular complications: ensured prophylactic protection against vascular complications
